According to patent publication US20220227827A1 (DINGFU BIOTARGET, published 2022):

B1: reverse-(IL10)2-Fc9-a (Fc fusion)
chain 1: EPKSSDKTHTCPPCPAPELLGGPSVFLFPPKPKDTLMISRTPEVTCVVVDVSHEDPEVKFNWYVDGVEVHNAKTKPREEQYNSTYRVVSVLTVLHQDWLNGKEYKCKVSNKALPAPIEKTISKAKGQPREPQVYTLPPSRDELTKNQVSLSCGVKGFYPSDIAVEWESNGQPENNYKTTPPVLDSDGSFKLASKLTVDKSRWQQGNVFSCSVMHEALHNHYTQKSLSLSPGKGGGGSGGGGSGGGGSSPGQGTQSENSCTHFPGNLPNMLRDLRDAFSRVKTFFQMKDQLDNLLLKESLLEDFKGYLGCQALSEMIQFYLEEVMPQAENQDPDIKAHVNSLGENLKTLRLRLRRCHRFLPCENKSKAVEQVKNAFNKLQEKGIYKAMSEFDIFINYIEAYMTMKIRNGGGGSGGGGSGGGGSSPGQGTQSENSCTHFPGNLPNMLRDLRDAFSRVKTFFQMKDQLDNLLLKESLLEDFKGYLGCQALSEMIQFYLEEVMPQAENQDPDIKAHVNSLGENLKTLRLRLRRCHRFLPCENKSKAVEQVKNAFNKLQEKGIYKAMSEFDIFINYIEAYMTMKIRN
chain 2: DKTHTCPPCPAPELLGGPSVFLFPPKPKDTLMISRTPEVTCVVVDVSHENPEVKFNWYVDGVEVHNAKTKPREEQYNSTYRVVSVLTVLHQDWLNGKEYKCKVSNKALPAPIEKTISKAKGQPREPQVYTLPPSRDELTKNQVSLWCLVKGFYPSDIAVEWESNGQPENNYKTTPPVLDSDGSFFLYSALTVDKSRWQQGNVFSCSVMHEALHNHYTQKSLSLSPGK
notes: purified by protein A only; also called proteinaceous heterodimer of Group C
B2: Human IL10R1 (receptor)
chain: HGTELPSPPSVWFEAEFFHHILHWTPIPNQSESTCYEVALLRYGIESWNSISNCSQTLSYDLTAVTLDLYHSNGYRARVRAVDGSRHSNWTVTNTRFSVDEVTLTVGSVNLEIHNGFILGKIQLPRPKMAPANDTYESIFSHFREYEIAIRKVPGNFTFTHKKVKHENFSLLTSGEVGEFCVQVKPSVASRSNKGMWSKEECISLTRQYFTVTN
notes: Bought recombinant protein coated on the ELISA plate; also called hIL10R1; human IL10R1 proteins

What was measured:
[1] = target: B2; experiment: ELISA, human IL10R1 coated at 5 ug/mL, detection with goat anti-hIgG-HRP
Protocol: Human IL10R1 (R&D, 9100-R1-050) was diluted to 5 μg/mL with coating buffer (50 mM Na₂CO₃, NaHCO₃ pH 9.6), 100 μL/well, overnight at 4° C. After washing, the plates were sealed with 3% BSA-PBS for 1 h at 37° C. The heterodimer proteins of the present disclosure were respectively diluted from 2000 ng/mL and were then diluted 2-fold to a total of 11 concentrations, with the diluent (1% BSA-PBS) as a control, and incubated for 2 h at 37° C. Goat anti-hIgG-HRP (Sigma, A0170) was added and incubated for 1 h at 37° C. The soluble one-component TMB substrate developing solution was added, and the developing was performed in dark at room temperature for 5-10 min. 2N H₂SO₄ 50 μL/well was added to terminate the color development reaction.

[2] = target: Erb-(IL10)2; experiment: ELISA, human IL10R1 coated

Row | EC50 [1] [µg/mL] | binding result [2] | Binder
1 | 0.0123 |  | B1
2 |  | binds | B2
